Results: patent US20150374794A1 (Novo Nordisk, published 2015)
Numbered stars: 1 amine (or outer) side, 2 acyl side, 3 side chain; on linkers, the order of the positions; unused ones are H or OH. Square brackets hold non-standard residues; d marks the D form. Side chains are listed from the residue outwards. Ends that are not written are not given here. * marks the point of attachment. C18 diacid = O=C(O)CCCCCCCCCCCCCCCCC(=O)*; γGlu = O=C(O)[C@H](CCC(=O)[*:2])N[*:1]; AEEA = NCCOCCOCC(=O)O; Aib = CC(C)(N)C(=O)O

B1: N^ε29-[(4S)-4-carboxy-4-[[(4S)-4-carboxy-4-[[2-[2-[2-[[2-[2-[2-[[(4S)-4-carboxy-4-(17-carboxyheptadecanoylamino)butanoyl]amino]ethoxy]ethoxy]acetyl]amino]ethoxy … (peptide)
peptide: H[Aib]QGTFTSDLSKYLDSRRAREFVQWLLNK([γGlu-γGlu-AEEA-AEEA-γGlu-C18 diacid])-NH2
modifications: N-terminus assumed
SMILES: CC(C)C[C@H](NC(=O)[C@H](CC(C)C)NC(=O)[C@H](Cc1c[nH]c2ccccc12)NC(=O)[C@H](CCC(N)=O)NC(=O)[C@@H](NC(=O)[C@H](Cc1ccccc1)NC(=O)[C@H](CCC(=O)O)NC(=O)[C@H](CCCNC(=N)N)NC(=O)[C@H](C)NC(=O)[C@H](CCCNC(=N)N)NC(=O)[C@H](CCCNC(=N)N)NC(=O)[C@H](CO)NC(=O)[C@H](CC(=O)O)NC(=O)[C@H](CC(C)C)NC(=O)[C@H](Cc1ccc(O)cc1)NC(=O)[C@H](CCCCN)NC(=O)[C@H](CO)NC(=O)[C@H](CC(C)C)NC(=O)[C@H](CC(=O)O)NC(=O)[C@H](CO)NC(=O)[C@@H](NC(=O)[C@H](Cc1ccccc1)NC(=O)[C@@H](NC(=O)CNC(=O)[C@H](CCC(N)=O)NC(=O)C(C)(C)NC(=O)[C@@H](N)Cc1c[nH]cn1)[C@@H](C)O)[C@@H](C)O)C(C)C)C(=O)N[C@@H](CC(N)=O)C(=O)N[C@@H](CCCCNC(=O)CC[C@H](NC(=O)CC[C@H](NC(=O)COCCOCCNC(=O)COCCOCCNC(=O)CC[C@H](NC(=O)CCCCCCCCCCCCCCCCC(=O)O)C(=O)O)C(=O)O)C(=O)O)C(N)=O
B2: N^ε29-[(4S)-4-carboxy-4-[[(4S)-4-carboxy-4-[[2-[2-[2-[[2-[2-[2-[[(4S)-4-carboxy-4-(17-carboxyheptadecanoylamino)butanoyl]amino]ethoxy]ethoxy]acetyl]amino]ethoxy … (peptide)
peptide: H[Aib]QGTFTSDLSKYLESKRAREFVQWLLKT-NH2
modifications: not fully specified
B3: N^ε29-[(4S)-4-carboxy-4-[[(4S)-4-carboxy-4-[[2-[2-[2-[[(4S)-4-carboxy-4-(17-carboxyheptadecanoylamino)butanoyl]amino]ethoxy]ethoxy]acetyl]amino]butanoyl]amino]b … (peptide)
peptide: H[Aib]QGTFTSDLSKYLDARRAREFVQWLLNK([γGlu-γGlu-AEEA-γGlu-C18 diacid])-NH2
modifications: N-terminus assumed
SMILES: CC(C)C[C@H](NC(=O)[C@H](Cc1ccc(O)cc1)NC(=O)[C@H](CCCCN)NC(=O)[C@H](CO)NC(=O)[C@H](CC(C)C)NC(=O)[C@H](CC(=O)O)NC(=O)[C@H](CO)NC(=O)[C@@H](NC(=O)[C@H](Cc1ccccc1)NC(=O)[C@@H](NC(=O)CNC(=O)[C@H](CCC(N)=O)NC(=O)C(C)(C)NC(=O)[C@@H](N)Cc1c[nH]cn1)[C@@H](C)O)[C@@H](C)O)C(=O)N[C@@H](CC(=O)O)C(=O)N[C@@H](C)C(=O)N[C@@H](CCCNC(=N)N)C(=O)N[C@@H](CCCNC(=N)N)C(=O)N[C@@H](C)C(=O)N[C@@H](CCCNC(=N)N)C(=O)N[C@@H](CCC(=O)O)C(=O)N[C@@H](Cc1ccccc1)C(=O)N[C@H](C(=O)N[C@@H](CCC(N)=O)C(=O)N[C@@H](Cc1c[nH]c2ccccc12)C(=O)N[C@@H](CC(C)C)C(=O)N[C@@H](CC(C)C)C(=O)N[C@@H](CC(N)=O)C(=O)N[C@@H](CCCCNC(=O)CC[C@H](NC(=O)CC[C@H](NC(=O)COCCOCCNC(=O)CC[C@H](NC(=O)CCCCCCCCCCCCCCCCC(=O)O)C(=O)O)C(=O)O)C(=O)O)C(N)=O)C(C)C
B4: N^ε29-[(4S)-4-carboxy-4-[[(4S)-4-carboxy-4-[[2-[2-[2-[[(4S)-4-carboxy-4-(17-carboxyheptadecanoylamino)butanoyl]amino]ethoxy]ethoxy]acetyl]amino]butanoyl]amino]b … (peptide)
peptide: H[Aib]QGTFTSDLSKYLESRRAREFVQWLLNK([γGlu-γGlu-AEEA-γGlu-C18 diacid])-NH2
modifications: N-terminus assumed
SMILES: CC(C)C[C@H](NC(=O)[C@H](CC(C)C)NC(=O)[C@H](Cc1c[nH]c2ccccc12)NC(=O)[C@H](CCC(N)=O)NC(=O)[C@@H](NC(=O)[C@H](Cc1ccccc1)NC(=O)[C@H](CCC(=O)O)NC(=O)[C@H](CCCNC(=N)N)NC(=O)[C@H](C)NC(=O)[C@H](CCCNC(=N)N)NC(=O)[C@H](CCCNC(=N)N)NC(=O)[C@H](CO)NC(=O)[C@H](CCC(=O)O)NC(=O)[C@H](CC(C)C)NC(=O)[C@H](Cc1ccc(O)cc1)NC(=O)[C@H](CCCCN)NC(=O)[C@H](CO)NC(=O)[C@H](CC(C)C)NC(=O)[C@H](CC(=O)O)NC(=O)[C@H](CO)NC(=O)[C@@H](NC(=O)[C@H](Cc1ccccc1)NC(=O)[C@@H](NC(=O)CNC(=O)[C@H](CCC(N)=O)NC(=O)C(C)(C)NC(=O)[C@@H](N)Cc1c[nH]cn1)[C@@H](C)O)[C@@H](C)O)C(C)C)C(=O)N[C@@H](CC(N)=O)C(=O)N[C@@H](CCCCNC(=O)CC[C@H](NC(=O)CC[C@H](NC(=O)COCCOCCNC(=O)CC[C@H](NC(=O)CCCCCCCCCCCCCCCCC(=O)O)C(=O)O)C(=O)O)C(=O)O)C(N)=O
B5: N^ε29-[(4S)-4-carboxy-4-[[(4S)-4-carboxy-4-[[2-[2-[2-[[2-[2-[2-[[(4S)-4-carboxy-4-(17-carboxyheptadecanoylamino)butanoyl]amino]ethoxy]ethoxy]acetyl]amino]ethoxy … (peptide)
peptide: H[Aib]QGTFTSDLSKYLDSRAAREFVQWLLNK([γGlu-γGlu-AEEA-AEEA-γGlu-C18 diacid])-NH2
modifications: N-terminus assumed
SMILES: CC(C)C[C@H](NC(=O)[C@H](CC(C)C)NC(=O)[C@H](Cc1c[nH]c2ccccc12)NC(=O)[C@H](CCC(N)=O)NC(=O)[C@@H](NC(=O)[C@H](Cc1ccccc1)NC(=O)[C@H](CCC(=O)O)NC(=O)[C@H](CCCNC(=N)N)NC(=O)[C@H](C)NC(=O)[C@H](C)NC(=O)[C@H](CCCNC(=N)N)NC(=O)[C@H](CO)NC(=O)[C@H](CC(=O)O)NC(=O)[C@H](CC(C)C)NC(=O)[C@H](Cc1ccc(O)cc1)NC(=O)[C@H](CCCCN)NC(=O)[C@H](CO)NC(=O)[C@H](CC(C)C)NC(=O)[C@H](CC(=O)O)NC(=O)[C@H](CO)NC(=O)[C@@H](NC(=O)[C@H](Cc1ccccc1)NC(=O)[C@@H](NC(=O)CNC(=O)[C@H](CCC(N)=O)NC(=O)C(C)(C)NC(=O)[C@@H](N)Cc1c[nH]cn1)[C@@H](C)O)[C@@H](C)O)C(C)C)C(=O)N[C@@H](CC(N)=O)C(=O)N[C@@H](CCCCNC(=O)CC[C@H](NC(=O)CC[C@H](NC(=O)COCCOCCNC(=O)COCCOCCNC(=O)CC[C@H](NC(=O)CCCCCCCCCCCCCCCCC(=O)O)C(=O)O)C(=O)O)C(=O)O)C(N)=O
B6: N^ε29-[(4S)-4-carboxy-4-[[(4S)-4-carboxy-4-[[2-[2-[2-[[2-[2-[2-[[(4S)-4-carboxy-4-(17-carboxyheptadecanoylamino)butanoyl]amino]ethoxy]ethoxy]acetyl]amino]ethoxy … (peptide)
peptide: H[Aib]QGTFTSDLSKYLDKRAAREFVAWLLNT-NH2
modifications: not fully specified
B7: N^ε29-[(4S)-4-carboxy-4-[[(4S)-4-carboxy-4-[[2-[2-[2-[[(4S)-4-carboxy-4-(17-carboxyheptadecanoylamino)butanoyl]amino]ethoxy]ethoxy]acetyl]amino]butanoyl]amino]b … (peptide)
peptide: H[Aib]QGTFTSDLSKYLDLRRAREFVQWLLNK([γGlu-γGlu-AEEA-γGlu-C18 diacid])-NH2
modifications: N-terminus assumed
SMILES: CC(C)C[C@H](NC(=O)[C@H](CC(C)C)NC(=O)[C@H](Cc1c[nH]c2ccccc12)NC(=O)[C@H](CCC(N)=O)NC(=O)[C@@H](NC(=O)[C@H](Cc1ccccc1)NC(=O)[C@H](CCC(=O)O)NC(=O)[C@H](CCCNC(=N)N)NC(=O)[C@H](C)NC(=O)[C@H](CCCNC(=N)N)NC(=O)[C@H](CCCNC(=N)N)NC(=O)[C@H](CC(C)C)NC(=O)[C@H](CC(=O)O)NC(=O)[C@H](CC(C)C)NC(=O)[C@H](Cc1ccc(O)cc1)NC(=O)[C@H](CCCCN)NC(=O)[C@H](CO)NC(=O)[C@H](CC(C)C)NC(=O)[C@H](CC(=O)O)NC(=O)[C@H](CO)NC(=O)[C@@H](NC(=O)[C@H](Cc1ccccc1)NC(=O)[C@@H](NC(=O)CNC(=O)[C@H](CCC(N)=O)NC(=O)C(C)(C)NC(=O)[C@@H](N)Cc1c[nH]cn1)[C@@H](C)O)[C@@H](C)O)C(C)C)C(=O)N[C@@H](CC(N)=O)C(=O)N[C@@H](CCCCNC(=O)CC[C@H](NC(=O)CC[C@H](NC(=O)COCCOCCNC(=O)CC[C@H](NC(=O)CCCCCCCCCCCCCCCCC(=O)O)C(=O)O)C(=O)O)C(=O)O)C(N)=O
B8: N^ε16-[(4S)-4-carboxy-4-[[(4S)-4-carboxy-4-[[2-[2-[2-[[(4S)-4-carboxy-4-[[(4S)-4-carboxy-4-(17-carboxyheptadecanoylamino)butanoyl]amino]butanoyl]amino]ethoxy]et … (peptide)
peptide: H[Aib]QGTFTSDLSKYLDK([γGlu-γGlu-AEEA-γGlu-γGlu-C18 diacid])RRAQEFVQWLVKG-NH2
modifications: N-terminus assumed
SMILES: CC(C)C[C@H](NC(=O)[C@H](Cc1ccc(O)cc1)NC(=O)[C@H](CCCCN)NC(=O)[C@H](CO)NC(=O)[C@H](CC(C)C)NC(=O)[C@H](CC(=O)O)NC(=O)[C@H](CO)NC(=O)[C@@H](NC(=O)[C@H](Cc1ccccc1)NC(=O)[C@@H](NC(=O)CNC(=O)[C@H](CCC(N)=O)NC(=O)C(C)(C)NC(=O)[C@@H](N)Cc1c[nH]cn1)[C@@H](C)O)[C@@H](C)O)C(=O)N[C@@H](CC(=O)O)C(=O)N[C@@H](CCCCNC(=O)CC[C@H](NC(=O)CC[C@H](NC(=O)COCCOCCNC(=O)CC[C@H](NC(=O)CC[C@H](NC(=O)CCCCCCCCCCCCCCCCC(=O)O)C(=O)O)C(=O)O)C(=O)O)C(=O)O)C(=O)N[C@@H](CCCNC(=N)N)C(=O)N[C@@H](CCCNC(=N)N)C(=O)N[C@@H](C)C(=O)N[C@@H](CCC(N)=O)C(=O)N[C@@H](CCC(=O)O)C(=O)N[C@@H](Cc1ccccc1)C(=O)N[C@H](C(=O)N[C@@H](CCC(N)=O)C(=O)N[C@@H](Cc1c[nH]c2ccccc12)C(=O)N[C@@H](CC(C)C)C(=O)N[C@H](C(=O)N[C@@H](CCCCN)C(=O)NCC(N)=O)C(C)C)C(C)C

What was measured:
human glucagon receptor [1] = target: T1, human glucagon receptor (human, UniProt P47871 26-477); test: displacement of 125I-glucagon, membranes with human glucagon receptor, SPA
T1 construct: whole, on cells; the potency assay used whole cells (clone pLJ6'-4-25); also called GlucR; hGCGR
Experimental: (§1) The receptor binding of each compound to the human glucagon receptor was measured in a displacement binding assay. […] Each derivative was added in a series of concentrations to isolated membranes containing the human glucagon receptor and displacement of the labelled ligand is monitored. The receptor binding was reported as the concentration at which half of the labelled ligand is displaced from the receptor, the IC₅₀ value.

human GLP-1 receptor [2] = target: T2, human GLP-1 receptor (human, UniProt P43220 24-463); test: cell-based or functional assay
human glucagon receptor [3] = target: T1, human glucagon receptor; test: cell-based or functional assay
human GLP-1 receptor [4] = target: T2, human GLP-1 receptor; test: displacement of 125I-GLP-1(7-36)NH2, membranes with human GLP-1R, SPA
Experimental: as §1, with “human GLP-1” for “human glucagon”, “ligand was” for “ligand is”

T1 sequence (P47871 26-477): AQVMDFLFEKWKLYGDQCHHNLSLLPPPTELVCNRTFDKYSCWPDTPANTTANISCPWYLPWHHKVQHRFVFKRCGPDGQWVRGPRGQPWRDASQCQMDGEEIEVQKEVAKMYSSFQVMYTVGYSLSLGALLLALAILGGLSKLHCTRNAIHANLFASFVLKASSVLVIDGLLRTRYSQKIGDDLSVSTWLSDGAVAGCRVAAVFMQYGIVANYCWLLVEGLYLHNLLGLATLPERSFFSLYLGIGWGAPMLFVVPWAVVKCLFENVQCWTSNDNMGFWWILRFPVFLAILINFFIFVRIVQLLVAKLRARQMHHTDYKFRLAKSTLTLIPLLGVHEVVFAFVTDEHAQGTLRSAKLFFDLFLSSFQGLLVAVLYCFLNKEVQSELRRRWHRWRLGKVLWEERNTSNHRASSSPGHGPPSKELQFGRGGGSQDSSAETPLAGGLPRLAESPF

Row | Binder | IC50 (human glucagon receptor [1]) | EC50 GLP-1R, CRE luciferase reporter gene assay in BHK cells (human GLP-1 receptor [2]) | EC50 GlucR, CRE luciferase reporter gene assay in BHK cells (human glucagon receptor [3]) | IC50 (human GLP-1 receptor [4])
1 | B1 | 7000 pM | 14.7 pM | 104 pM | 500 pM
2 | B2 | 7100 pM | 11.8 pM | 87.1 pM | 200 pM
3 | B3 | 5600 pM | 4 pM | 12 pM | 300 pM
4 | B4 | 37700 pM | 4 pM | 136 pM | 400 pM
5 | B5 | 381000 pM | 3.2 pM | 699 pM | 200 pM
6 | B6 | 11000 pM | 2.3 pM | 220 pM | 100 pM
7 | B7 | 29400 pM | 13 pM | 24 pM | 1200 pM
8 | B8 | 148000 pM | 29.5 pM | 1330 pM | 1600 pM
